Earlier results as cited in paper PMC9090500.

Molecular target: IL18 (Homo sapiens) (UniProt Q14116)
Sequence (Q14116 37-193): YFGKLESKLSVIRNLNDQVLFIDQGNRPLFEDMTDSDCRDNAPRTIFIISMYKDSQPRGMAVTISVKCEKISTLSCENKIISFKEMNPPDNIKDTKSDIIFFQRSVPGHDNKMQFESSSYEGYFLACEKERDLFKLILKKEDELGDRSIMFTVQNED

Sequence of IL18BP (O95998 31-194): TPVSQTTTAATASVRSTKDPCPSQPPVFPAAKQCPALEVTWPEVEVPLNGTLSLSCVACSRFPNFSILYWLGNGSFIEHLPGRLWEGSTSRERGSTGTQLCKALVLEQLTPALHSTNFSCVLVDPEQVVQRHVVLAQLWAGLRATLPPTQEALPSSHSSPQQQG

For IL18BP (from UniProt O95998), the Kd is listed as 0.4 µM.
